These results are taken from the nanobody polyreactivity screen of Harvey et al. (2022).

This data set can be described thus: yeast display, Sf9 membrane polyspecificity reagent, FACS + sequencing; frameworks hold sequencing errors. The essentials:
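Nanobodies from a synthetic yeast display library (Saccharomyces cerevisiae BJ5465), induced 36–48 hours with galactose, were stained 1 hour at 4 °C with 10% biotinylated, detergent-solubilized Sf9 membrane reagent, enriched on streptavidin microbeads, then FACS-sorted. Anti-HA (expression) and streptavidin (reagent binding) fluorescence set low and high (top ~1%) gates. Polyreactivity labels come from the gate of origin. Genes were colony-PCR amplified, MiSeq 2 × 250 sequenced and filtered by CDR length.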
Regarding “QVQLVESGGGLVQAGGSLRISCAASGFIISFYAMGWYRQAPRKERELVAAIKLSGGSTYYADSVKGRFTISRDNAKNTVYLQMNSLKPEETAVYYCNDVQYFSIPKPVWLFVLRYYYWGHGTQVTVSS”, the “polyreactivity (PSR sort gate)” value is on record as “low polyreactivity”.

Turning to “QVQLVESGGGLVQAGGSRRLSCAASGRTLGHNAMGWYRQAPGKERELVAAITSRGGTTYADSVKGRFTISRDNAKNTVYLQMNSLTPEDTAVYYCAARGYAYSRYYFWGQGTQVTVSS”, the “polyreactivity (PSR sort gate)” value was “high polyreactivity”.

“QVQLVESGGGLVQAGGSLRLSCAASRFYTMGWYRPAPGKERELVAAISWSGGDTYYADSVKGRYTISRDNAKNTVYLQMNSLKPEDPAVFYCNKDYSFEYSLRHRDYWGQGTQVTVSS”: the “polyreactivity (PSR sort gate)” value is listed as “low polyreactivity”.

As for “QVQLVESVGGLVQAGGSLRLRCGASGSIFYIYAMGWYRHAPGNERELVAAITRRAATYADSVKGRFTISRDNAKKTGYLQMNSLKPEDTAVYYCNADVQRLGRYDYWGQGTQVTVSS”, the “polyreactivity (PSR sort gate)” value was “high polyreactivity”.

As for “QVQLVESGGGLVQAGGSLRLSCAASGRIIKYYTMGWYRQAPGKERELVASITGTGGSTYYADSVKGRFTISRDNAKNTVYLQMNSLKPEDTAVYYCAARLSVLGGYRGRNAWRFDHWGQGTQVTVSS”, the “polyreactivity (PSR sort gate)” value is reported as “high polyreactivity”.

On to “QVQLVESGGGLVQAGGSLRLSCAASGSTFTWYAMGWSRQAPGKERELVADISYGGGSTYYADSVKGRFTISRDNAKNTVYLQMNSLKPEDTAVYYCAAESIPYYRYDYWGQGTQVTVSS”, for which the “polyreactivity (PSR sort gate)” value is “low polyreactivity”.

As for “QVQLVESGGGLDQAGGSLRLSCAASGSIFNFYALGWYRQAPGKERELVAAISWSAGSTYYADSVKGRFTISRDYAKNTVYLQMNSLKPEDTAVYYCAADRYAYDWIQYYYHFLYDYWGQGTQVTVSS”, the “polyreactivity (PSR sort gate)” value was “low polyreactivity”.

Turning to “QVQLVESGGVLVQAGGSLRLSCAASGRTLFHYAMGWDRQAPGKERELVAAIRNSDGSTYYADSVKGRFTISRDNAKNTVYLQMNSLKPEDTAVYYCAAKYKYRTNNYWGQGTQVTVSS”, the “polyreactivity (PSR sort gate)” value is “high polyreactivity”.

As to “QVQLQESGGGLVQAGGSLLICAASGTISWVDEMGWYRQAPGNERELVAGIAGGGNTNYADSVKGRYTISRDNAKNTVYLEMNSLDTAVYYCAVVGFGRGTHIYWGQGTQVTVSS”, the “polyreactivity (PSR sort gate)” value is given as “high polyreactivity”.

For “QVQLVESGGGLVQAGGSLRLSCAASGSIFYGNAMGWYRQAPGKERELVAGISWSGGSTYYADSVKGRFTISRDNAKNSVFLQMNSLKPEETAVYYCAAVRWGSYTLSDDYWGQGTQLTVSS”, the “polyreactivity (PSR sort gate)” value is “low polyreactivity”.

Consider “QVQLVESGGGLVQAGGSLRLSCAASGSTFTYYAMGWYRQAPGKERELVAAISSTDSTYYADSVKGRFTISRDNAKNTVYVQMNSLKPEDTAVYYCAAVRFSHSRETRRGYWGQGTQVTVSS”, for which the “polyreactivity (PSR sort gate)” value was “high polyreactivity”.

On to “QVQLVESGGGLVQAGGSLRLSCAASGFILSDYAMGWYRQAPGKERELVAGINSGGSTYYADSVKGRFTISRDNAKNTVYLQMNSLIPEDTAVYYCAAGVDYWWLVHFLYYYWGQGTQVTVSS”, for which the “polyreactivity (PSR sort gate)” value is listed as “high polyreactivity”.

For the sequence “QVQLVESGGGLVQAGGSLRLSCAASGRIFYEYAMGWYRQAPGKERELVAAITRGDSTYYADSVKGRFTISRDNAKNTVYLQMNSLKPEDTAVYFCNAGVFDYSGDSNYWGQGTQVTVSS”, the “polyreactivity (PSR sort gate)” value is listed as “low polyreactivity”.

With “QVQLVESGGGLVQAGASLRLSCAASGRTIYANAMGWYIQAPGKERELVAAISRRGGNTYYADSVKGRFTISRDNAKNTVYLQMNRLKPEDTAVYYCYAYGGGDYWGQGTQVTVSS”, the “polyreactivity (PSR sort gate)” value was “high polyreactivity”.

As to “QVQLVESGGGLVQAGGSLRLSCAASGSTFQGYAMGWYGQAPGKERELVAAINYSGGSTYYADSVKGRFTISRDNAKNTVYLQMNSLKPEDTAVYFCAARWYAVRDDYIVRYDYWGQGTQVTVSS”, the “polyreactivity (PSR sort gate)” value is “high polyreactivity”.

Consider “QVQLVESGGGLVQAGGSLRLSCAASGRTFYRYVMGWYRQAPGKERELVAAISKSDGSTYYADSVKGRFTISRDNAKNSVYLQMNSLKPEDTAVYYCNARLSWSAFGYWGQGTQVTVSS”, for which the “polyreactivity (PSR sort gate)” value was “high polyreactivity”.

As for “QVQLVESGGGLVQAGGSLRLSCAASGITLDRNYMGWYRQAPGKERELVAAISRSGVRTYYADSVKGRFTISRDNAKNTVYLQMNSLKPEDTAVYYCNKGYARRYASGYDYWGQGTQVTVSS”, the “polyreactivity (PSR sort gate)” value is on record as “high polyreactivity”.

Turning to “QVQLVESGGGLVQAGGSLRLSCAASGSTFWTNAMGWYRQAPGKERELVATITYSTGTYADSVKGRFTISRDNAKNTVYLQMNSLKPEDTAVYYCAADFWYRTVYGYFGYVYWGQGTQVTVSS”, the “polyreactivity (PSR sort gate)” value was “low polyreactivity”.

Consider “QVQLVESGGGIVQAGGSLRLSCAATGNTFRYYTMGWYRKAPGKERELVAAINYRGSRTYYADSVKGRFTISRDNAKNTVYLQINSLKPEDTAVYYCARAYNAGYRYRSDYWGQGTQVTVSS”, for which the “polyreactivity (PSR sort gate)” value is “high polyreactivity”.

For “QVQLVESGGGLVQAGGSLRLSCAASGRTFWNYAMGWYRQAPGKERELVAVIRFSDGSTYYADSVKGRFTISRDNAKNTVYLQMNSLKPEDTAVYYCADIGPRRWGSGFDYWGQGTQVTVSS”, the “polyreactivity (PSR sort gate)” value is listed as “low polyreactivity”.

For “QVQLVESGGGLVQAGGSLRLSCAASGLTFYDYAMGWYRQAPGKERELVADIDFNGGSTSYADSVKGRFTISRDNAKNTVYLQMNSLKPEDSAVYYCNSRDRGDVVTGLDYWGQGTQVTVSS”, the “polyreactivity (PSR sort gate)” value is on record as “low polyreactivity”.

For the sequence “QVQLVESGGGLVQAGGSLRLSCAAAGRTFYPYVMGWYRQAPGKERELVATISWSGGSTYYADSVKGRFTISRDNAKNSVYLQMNSLKPEDTAVYYCAALWPYGYWGQGTQVTVSS”, the “polyreactivity (PSR sort gate)” value is given as “low polyreactivity”.

For “QVQLVESGGGLVQAGGSLRLSCAASGSTIYTYVMGWYRQAPGKERELVAAISWSGSSTYYADSVKGRFTISRDNAKNTVYLQMNSLKPEDTAVYYCNAQYRRGWWGVEYGYWGQGTQVTVSS”, the “polyreactivity (PSR sort gate)” value was “low polyreactivity”.

“QVQLVESGGGLVQAGGSLRLSSAASGSTFLLNAMGWYRQAPGKERELVAAITWSGSRTYYADSVKGRFTISRDNPKYNVYLQMNSLKPEDTAVYDCAAEYRDTRRYSYDYWGQGTQVTVSW”: the “polyreactivity (PSR sort gate)” value is “high polyreactivity”.

For the sequence “QVQLVESGGGLVQAGGSLRLSCAASGSIVDTNAMGWYRQAPGKERELVAAITSTDSTNYADSVKGRFTISRDNAKNTVYLQMNSLKPEDTAVYYCNAALSQLRRGGLAMDYWGQGTQVTVSS”, the “polyreactivity (PSR sort gate)” value is reported as “low polyreactivity”.

For the sequence “QVQLVESGGGLVQAGGSLRLSWAASGSTFRLYAMGWYRQAPGKERELVAAITWSGGSTYYADSVKGRFTISRDNAKNTVYLQMNSLKPEDTAVYYCAAHRIGYYLRVSYRGKYDHWGQGTQVTVSS”, the “polyreactivity (PSR sort gate)” value is reported as “low polyreactivity”.

“QVQLVESGGGLVQAGGSLRLSCAASGHIFGRYAMGWYRQAPGKERELVAAITSGGRTNYADSVKGRFTISRDNAKNTVYLQMNSLKPEDTAVYYCAAYSWYFGSRYDYWGQGTQVTVSS”: the “polyreactivity (PSR sort gate)” value is “low polyreactivity”.

Consider “QVQLVESGGGLVQAGGSLRLSCAASGSISEIYAMGWYRQAPGKERELVAAISWSGGRTYYADSVKGRFTISRDNAKNTVYLQMNSLKPEDTAVYYCAARYRGGYYFGYEPYYYWGQGTQVTVSS”, for which the “polyreactivity (PSR sort gate)” value is recorded as “high polyreactivity”.

As for “QVQLVESGGGLVQAGGSLRLSCAASGITFTSYAMGWYRQAPGKERELVAAISWSGDRTYYADSVKGRFTISRDNAKNTVYLQMNSLKPEDTAVYYCAADQFTGSVWAYYYWGQGTQVTVSS”, the “polyreactivity (PSR sort gate)” value is listed as “high polyreactivity”.

On to “QVQLVESGGGLVQAGGSLRLICAASGFTFYYKAMGWYRPAHGKERELVAAISTGGSTYYADSVKGRFTISRDNAKNTVYLQMNSLKPEDTAVYYCARSLWTGGYGYYYWGQGTQVTVSS”, for which the “polyreactivity (PSR sort gate)” value is “high polyreactivity”.
